Measurements as given in paper PMC6803640, “Oligomeric state, hydrodynamic properties and target recognition of human Calcium and Integrin Binding protein 2 (CIB2)” (Scientific Reports, 2019).
Entries after “also recorded” stand apart in the source; their conditions may differ. Where a SMILES comes first, the peptide text is derived from it.

T1: human CIB2 (Homo sapiens, UniProt O75838)
T1 construct: made in house
T1 sequence (O75838 1-187): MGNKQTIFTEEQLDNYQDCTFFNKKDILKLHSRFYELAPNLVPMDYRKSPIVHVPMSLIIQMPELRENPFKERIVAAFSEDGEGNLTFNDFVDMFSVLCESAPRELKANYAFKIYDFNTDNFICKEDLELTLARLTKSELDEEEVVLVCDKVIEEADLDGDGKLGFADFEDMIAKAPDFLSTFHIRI


Tests used:
CIB2 = assay: Near-UV circular dichroism; type: physicochemical, human; details: 37 °C
Protocol: CIB2 tertiary structure was investigated by using a Jasco J-710 spectropolarimeter equipped with a Peltier type cell holder as previously described. Briefly: near-UV (250–320 nm) CD spectra of 20 μM of sole CIB2 or CIB2/α7B_M complexes (1:1 and 1:2 ratios) were collected in the presence of 500 μM EGTA and after sequential additions of 1 mM Mg^2+ and 2 mM free Ca^2+. A 1 cm quartz cuvette was used, temperature was set at 37 °C, integration time and data pitch were set to 4 s and 1 nm, respectively. Each spectrum represents the average of 5 accumulations. […]
Figure S4: Structural comparison of His-CIB2 (A) and CIB2 (B). Near-UV CD spectra (250-320 nm) of 20-30 µM CIB2 were collected at 37°C in a quartz cuvette with 1 cm length path. Sequential additions of 500 µM EGTA (black), 1 mM Mg2+ (blue) and 2 mM Ca2+ (red) were performed. Near-UV CD spectra of the buffer (20 mM HEPES pH 7.5, 150 mM KCl, 1 mM DTT) was considered as blank and subtracted. Each spectrum represents the mean of 5 accumulations. Data were normalized according to the protein concentration and the number of residues (Molar Residue Ellipticity, MRE).
Figure S5: Near-UV CD spectra of CIB2 in the presence of different stoichiometric ratios of alpha7B_M peptide. Near-UV CD spectra (250-320nm) of 20 μM CIB2 in the absence of peptide (black lines) and in the presence of two different protein/peptide ratios (1:1 blue lines; 1:2 red lines) collected at 37°C in the presence of 500 μM EGTA (A) and after sequential additions of 1 mM Mg2+ (B) and 2 mM free Ca2+ (C). The spectrum of alpha7B_M peptide in the absence of CIB2 is shown in dashed grey lines. […]

[1] = Analytical size exclusion chromatography; type: physicochemical
Protocol: The molecular weight (MW) of the proteins was determined before and after DSBU-modification as previously described[7] in the same buffer (20 mM HEPES, pH 7.5, 1 mM DTT, 1 mM Mg^2+ and 2 mM Ca^2+). […] Standard calibration curve for MW estimation was the same used in our previous study.

human CIB2 = biological target: T1, human CIB2; assay: SPR CIB2 dimerization; type: binding; details: amine-coupled CIB2 (130 RU and 226 RU), CIB2 92 nM – 46 μM injected; Ca^2+ and Mg^2+
Excerpt: SPR is a powerful and versatile technique to detect at real time biomolecular interactions, and it can be applied to study protein oligomerization, in particular dimerization, when care is taken to immobilize on the surface of a sensor chip low amounts of proteins under controlled conditions[27]–[29]. Two independent experiments were run following low levels of amine-coupling of CIB2 (130 RU and 226 RU, respectively) on the surface of a sensor chip. […]
by summing the volume of each residue and correcting the final volume for electrostriction as explained in Ref.4, therefore the specific volume for Rec, CaM and CIB2 were 0.712, 0.694 and 0.715 cm3/g respectively. The molecular weight used for the estimation of hydrodynamic diameter was calculated based on the effective protein sequence of each pdb file using Protein Calculator 3.4 (http://protcalc.sourceforge.net/).
Surface plasmon resonance analysis
A SensiQ Pioneer surface plasmon resonance instrument (FortéBio Pall) was employed for the investigation of the CIB2 dimerization and for the real-time monitoring of its interaction with selected peptides. For studies of on-chip CIB2 dimerization, HBS buffer (20 mM HEPES, pH 7.5, 150 mM KCl, 1 mM MgCl2, 50 µM EDTA, 0.005% Tween 20), was used both as immobilization and running buffer, with the addition of fresh 1 mM DTT just before each experiment. […]

Row | Molecule | near-UV CD, effect of peptide on apo-CIB2 (CIB2; 20 μM CIB2, 500 μM EGTA, 1:1 and 2:1 peptide:protein) | near-UV CD, effect of peptide on cation-bound CIB2 (CIB2; 20 μM CIB2, 1 mM Mg^2+ and co-presence of 2 mM Ca^2+, 1:1 and 2:1 peptide:protein) | near-UV CD, structure of isolated peptide (CIB2; 500 μM EGTA, 1 mM Mg^2+, 2 mM Ca^2+) | near-UV CD, tryptophan region (CIB2; incubation of CIB2 with peptide) | apparent MW (MW^SEC) ([1]; absence of cross-linker, 1 mM Mg^2+, 2 mM Ca^2+) [kDa] | MW^SEC ([1]; analytical SEC, 20 mM HEPES pH 7.4, 150 mM KCl, 1 mM DTT, 1 mM Mg^2+, 2 mM Ca^2+, CIB2 ∼70 µM (A2 band), Rec ∼80 µM, CaM ∼110 µM) [kDa] | MW^SEC, A1 shoulder ([1]; lower intensity shoulder A1 at lower elution time, predicted) [kDa] | apparent MW (MW^SEC) ([1]; presence of DSBU cross-linker, 1 mM Mg^2+, 2 mM Ca^2+) [kDa] | dimerization signal by SPR (human CIB2)
1 | CSCC[C@H](NC(=O)[C@H](CCCCN)NC(=O)[C@H](Cc1c[nH]c2ccccc12)NC(=O)[C@H](CC(C)C)NC(=O)[C@H](CC(C)C)NC(=O)[C@H](CC(C)C)NC(C)=O)C(=O)NCC(=O)N[C@@H](Cc1ccccc1)C(=O)N[C@@H](Cc1ccccc1)C(=O)N[C@@H](CCCCN)C(=O)N[C@@H](CCCNC(=N)N)C(=O)N[C@@H](C)C(=O)N[C@@H](CCCCN)C(=O)N[C@@H](Cc1c[nH]cn1)C(=O)N1CCC[C@H]1C(=O)N[C@@H](CCC(=O)O)C(N)=O [α7B_M] (Ac-LLLWKMGFFKRAKHPE-NH2) | finer spectrum in the phenylalanine and tyrosine bands | the intensity of the resulting spectrum was lower compared to that of CIB2 without the peptide | unfolded in all the tested cases | no clear signal was visible |  |  |  |  | 
2 | CIB2: Recombinant human CIB2, Ca^2+ and Mg^2+-binding protein (protein, left off: His tag, end not stated, cleaved) MGNKQTIFTEEQLDNYQDCTFFNKKDILKLHSRFYELAPNLVPMDYRKSPIVHVPMSLIIQMPELRENPFKERIVAAFSEDGEGNLTFNDFVDMFSVLCESAPRELKANYAFKIYDFNTDNFICKEDLELTLARLTKSELDEEEVVLVCDKVIEEADLDGDGKLGFADFEDMIAKAPDFLSTFHIRI |  |  |  |  | 35.9 | 37.8 | 81.3 | 36.7 | sensorgrams, except for some non-specific bulk effect; also recorded: In no case was a signal detected; also recorded: SPR did not detect dimerization
